Laboratory results from a protein production outcome set (Wang et al. 2014).

Assay: label from the status in PepcDB records
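Also: failed if final PepcDB status was selected cloned or expressed and not failed if soluble or beyond.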

Sequence	protein production
MAAVPPENGVDGDDEREEEEEDEEEEEEEEEEENGDEAEEEPRLKYQRMGGNVPALLSNDAASCIAVAARMIALGTHDGTVRILDLLGNQVKEFRAHTAPVNDINFDTEGEYIGSCSDDGSVVINSLFTDDEKMKFDYHRPMKAISLDPDYTKKQSKRFVAGGLAGHLYMNSKKWFGNKDQVLHSGEGPIHSVKWRGSLIAWANDVGVKVYDTAKDQRVTFIEKPRGSPRPEALLPHLVWQDDTLLVIGWGTSVKIASIKSDQQQTGTFRQIQMSSLTQVDIVASFQTSYYISGIAPFGDSLVILAYIPIEGDGEKEFSSTTTLSRQGNAQRPEIRIVSWNNDELTMDALPVHGFEHYKAKDYSLAHAPFPGSSYAGGQWAAGDEPLYYIVSPKDVVIAKPRDAEDHINWLLQHGFHEKALAAVEASEGRTELIDKVGAGYLDHLIVERKYAEAASLCPKLLRGSASAWERWVFHFAQLRQLPVLVPYMPTDNPRLKDTVYEVALVALATNPSYHKELLSAVKSWPRSVYSALTVISAIEPQLNTSSMTDALKEALAELYVIDGQYQKAFSLYADLLKPEVFDFIEKYSLHEAIRGKVVQLMLLDCKRATVLFIQNRDLIPPSEVVPQLLKAGKNPQVLKAGKKCDSRYYLYLYLHALFEVSHDTGKDFHDMQVELYAEYDTKMLLPFLRSSQHYKLEKAYELCVKKDFLREQVFVLGRMGNAKQALAVIINKLGDIEEAVEFVSMQHDDDLWEELIKQCLNKPEMVGLLLEHTVGNLDPLYIVNMVPNGLEIPRLRDRLVKIVTDYRTETSLRHGCNDILKTDIVNLLVKCFNEARRGVCLSHEDDDSRAKREDNNRSSFSQRMVVDKSLSIKMTEVKSKTRGDTRCCMCFDPVSIRGDTVVVFFCCHAYHETCLMDAAFSNNNHKTTKGSSGYEYSYDNGVDEEEEDEEEDEDGDGDRPGRSRLRCILCTTAAAASAR	failed
MGDVVEMTSELGFKYSILASGSTGNSFYLETPEKKILVDAGLSGKKITSLLAEIDRDPSDLDAILVTHEHKDHIHGVGVLARKYGMDIYANEKTWQIMDSKNMLGKVDNSQKHIFSRGKLLTFGDIDIESFGVSHDAINPQFYRFMKDGKSFVMLTDTGYVSDRMAGLIENADGYLIESNHDIEILRAGSYPWSTKQRILSDQGHLCNEDGADAMIRTIGNKTKKIYLGHLSKENNIKELAYMTMENQLARADFGVGTDFKIFVTSPDTATPLTDILEHHHHHH	not failed
MKLITKEVRIGIAGVAALCLLVFGINYLKGINMFKPASYFYVKFHNVNGLAQSSPVFADGVRVGIVRDIAYDYNQPENVIVEVEVDTDLRIPKGSSAELVPELMGGVRMNILLANNPRERYTVGDTIPGTLNNGMMEKVAAMMPAVEKMLPKLDSILTSLNTIMADQSIPATLHSIEKTTANLEVTSRQLKVLMNNDIPQLTGKLNTIGDNFVVISGNLKEIDYAATFKKIDTTLSNVKMLTEKLNSKDNTVGLLLNDPQLYNNLNQTTINAANLLEDLKEHPKRYVHFSLFGKKDKLEHHHHHH	failed
MESVRIEQMLSLPAEVSSDNLESAERGASAAQVDMGPHPKVAAEGPAPLPTREPEQEQSPGTSTPESKVLLTQADALASRGRIREALEVYRQLSERQQLVAEQLEQLVRCLAEKVPQGEALAPAPPDEGSTASGTVAAEETGAAAAAAATEVWDGFKCRKCHGFLSDPVSLSCGHTFCKLCLERGRAADRRCALCGVKLSALMVATGRARGARRAGQQPPPPLRVNVVLSGLLGKLFPGPARASQLRHEGNRLYRERQVEAALLKYNEAVKLAPNDHLLYSNRSQIYFTLESHENALHDAEIACKLRPMGFKDNLELPHCSSQEEAAARGDGSSLMDPAKVKGDGQQHHMKDQEEEEEKWDATSPKAASSKTGKCQEKKRKHCQIESQEETGMPNKASKQDPPTDQGDKPALSLPLASFDASDLECALCMRLFYEPVTTPCGHTFCLKCLERCLDHNAKCPLCKDGLSQCLASRKYSKNVIMEELIAKFLPEELKERRKLYEEEMEELSNLNKNVPIFVCTMAYPTVPCPLHIFEPCYRLMIRRCIETGTRQFGMCLGDPVKGFAEYGCILEIRNVQFFADGRSVVDSIGKRRFRVLHQSQRDGYNTADIEYIEDQKVQGEDCAELMGLHNCVYQQASLWFHSLKLSLKNRILNHFGPMPEKDADPQMNPNGPAWCWWMLAVLPLESRAQLPFLAMRSLKDRLNGIRRVLAFISRNQN	failed
LPAHSWLGSFQAAGFDLVGQAWLPEQPSATLFLLHGYYDHMGLYRHVIEWALKQGFAVISCDLPGHGLSSGERASITDFAVYQQVLEALFEQAHTLQLPHPWHLCGQSTGGAIAVDHLLHQGARSPVDGQVILLAPLVRPSSWRWSKFSYCVLRHFVNGIERRFSENTNDPAFLPFLEADPLQPRRLPTAWVGALIAWVKRIEAAPRSARRPLIVQGEADGTVDWPHNLEVLKAKFAEPQILMLPEARHHLANELPGIRQRYFDFIDQRLG	failed
MRFIITLFLILQLTTLAFSAHSRDKIGLVLSGGGAKGSAHIGVLKVLEQHNIPIDYVVGTSIGAYVGGMYALGYEVSEIEAIMLGMPWDESYSDFIPRESLAYDKKQHRDRYNISIRLGYSDGEFKVPHGLLLGQSAYQILQRSTDTVRSFDSFDDLAIPYRAVASDIATAKMVVLDSGSINEAMKASAAVPGIVAAVEIDGKTLVDGGITNNMPIDVIKAMGADIVIAIDIGSPLAEQSELTSTVSVLNQLSTILTNNTSLAQKALLTDKDILLRPAIDKLSTTDWSVMPEALKLGEQEAQAQSQALMKLAISDVDYQAYKNQKKLKAKKWFDALPRHITKIKINNNSKVENDIIEKVFAVELGKKLTKEALDLAINRVYALDKFEQVTVEFDDSPEGRIITLTTQAKSWGPNYFDFGFNLKTDFSDQSITSINMSYLMTNVSMNGGRWLNELELGWESLLASEFYQPLDHSHDIYSRARVSFAQDKWEKTSFREELRNEYYQATLALGYDYSFKGIIELGVIAETGDLSLDKPGTDDFDYDSYGSFITFGYDTLDSINFPTNGNKLLIEVKWLKDEYSPQLSDVEKDTATTFALDWRGAIGIRGHTFVGIASFATIDNESDFSVHVTELGGFLNLSGYQEDALIGVHKVFAAVVYQYDLGREIPGGSGLPIYLGTSLEAGNVWGGEDRIRYNDLISSGSIYLGTDTSFGPAVLGMGFATSGEHSFFLSIGKNW	failed
MSLSGALKENSGKPSEVEYTHFKDLQALEMERGRLYETIVVTWDDSMVGNAAPIGVLCTGDDTVTLYLYQGTRTVENVLNNGRFTVNVTLDPLIFTDSTLGDLEEDMFSHYRDFLHLRGADAFFTAEVVSVKKLVKRDRFGESELHVVKARAGDVMRAESFRMALNRGIYAVIESLIAYTRAEFSDPLVLRERIAEMNRVARKVGGPREKEAMRRIIQALESKISEGHHHHHH	not failed
MFNKVAFMNIPMMDLIMIVIAIIITIGSFLFIAYLIFKYSKIKKQVKIIREVKINLPKMLKSNMIKNSFLIISLLCFYFGMLYIAGELVISHILFIAICWIVVFLYIIIKGETRGYICEEGLLVSGVLYSWKEFKDVKIEDNYIILTTPIHKIVIKKEKGVENILKNYLKRN	failed
MKLIWSPETASKAYIDTVKSCENLGTPGAAELVAAMAAGWNANLIVETWSEGETIAISVGLNIASRHTNGRHICIVPNARSQTAYLQAMAEQSCSNLPETIIMNEEGEELEHTMQTLQGIDFLVVDWDQKDFAANVLRNAVFGSRGAVVVCRSGYRRSTSCFSWTKAFSDRNVVRTVTLPVSGGLEIAHVAAARSSGKSDNNSNKRKWIKHFDQRSGEEHVIRK	failed
MTASDDAPISTDRFMFGRAQRWLHWSMALLIFAAIGLGIVAAYYPSGQQPRQGLLELHKSIGFTILALLVVRIVLRLISGEPPYRRPLGHLTEMAARAGHLALYGLMLLMPLSGYLFSGAGGYSLPWFGLFQWPRLVPRDHALSEWGQVLHDRGAWVLGAVLALHLAAVCWHQFVKRDEVLSRMTGRASES	failed
MAEQEDIILEKPEDGLNQPRLDESLEGFKGQEGQAPEDEEFASLPEELPQENSESGFKFTRESAPEDVSTFEEVESQEPTPWYKDRKFMSLVGLSLGIICILVFTLFYLTFSEGKIKPDIIASKPLEQPVIMPDESYKYNDMQRIDGMIQKANALYLKGEVEQALKVYEQVAVYNESLSNYNLGVSQMNENKFQEAFESFKKAIANGENQSVAAINAAVCALKLNDKEKFRYYIDLAQVYLPKEGKSKLYDYYLSLINYYKGYYPEALQMLQRTDVEPYSDVAKYLSAKIYAKMDFDSKAIQQLNSQGNFESSLSLGLLYARIGEYAKAKVALSTAMKIERDFNQSLAALTLVDIKTGNYQDMLARLQNSYDNDKDRYKILDTYKIQVRLNKDLFNIAVAQNSFSKDLLKKQKDQFDLLFYFAPYQVFDSKQAALYIKKANVTDFVDDSTDAGIYLNISKALSSTNVKIANIINYALNQKLRLANQEFQKLIKDYPEHSILHYNLALTYAQMQNYELAYKHFSSSYHLNPKNYLAGAFAMFCAKLIDIDTTKLYNEILDNIAADSNFKANMQKSMLFLVNNNYISMLPYLDETKKDTPLSLIFEAIVAKNNNLNNQVDVKIAKLRSELPEDILANILYFNSLNSNLNIKEYAQNAQIHFKNLKLDYRSVFGGPNIAREFYVNLMHIAGLLNLERQKFKELINVSGAKDEGILQTLAYLDIFAQQYEEAYALYNSLIDDYGAKDTKTLFLAAVAAVGANNPNSAIALLQLSKLTDKNNKESKAALGMLYQEVKNYEAAISQYKTLPNNFKSEFFTFDINNN	failed
MQNIAVHEASTLMRYISNAIGSIRDPQELFRTVTDKLRLVFEFDSAFIITLDRDRRFINVVFEMVRFDLPDTIQRKKRPVAGSWIESHLGDEGVSVVAIEGEMDRYPADFPVPRMLYDLGMRQVVLSPLRSGGKVIGFLNFVSREQKQWKESDKELLSTLSSPVAVALSSALAYEELRQREA	failed
PLLIFPPWINKFYIMDLRPENSMIRWLTAQGFTVFVASWVNPDQTLAAKTFEDYMVEGIYDAAQQVMTQCGVDRVNTVGYCIGGTLLSVALAHMAARGDKRINSATFFAAQQDFAEAGDLLLFTNEEWLQSIEQQMDQAGGFLPSQSMADTFNALRGNDLIWSFFVSNYLMGKEPRPFDLLFWNADQTRMPKALHLFYLRNFYKDNALTTGKLSLGGERLDLSKVKIPIYVQSSKDDHIAPYRSVYRGARAFGGPVTFTMAGSGHI	failed
MATEPLTHPTAAPKRTRDLLAGLSIAGLLLPEAVAYSSIAALPPQAGVIALFAGLLCYGLLGTSRFAIVSATSSSAAVLAAATLSLAGGDAQLRLSLAFALVLLTGVFFLLAGLFRLGGVTAFIAKPVLRGFAFGLALTIVLKQFATVVGVHLSTGNLVRFLPQLLEQWPQWNWAGAAVAAVALLVLGICSRIPYVPGGLVAVVIGIGAGQWFNLPAHGVDLIGVIELKLEVPSLPQLPFADWLRLGELAFALVMILYAESYGSISSFALKHGDRVSSNRDLLALGASNLLSGLFHGMPAGAGYSATSANEAAGARSRLAGLTAAAVMLLIVLTVLPYIALTPEPVLAAIVMYALGHGLSLQPLGRYFIWRRDRVLVICAVSAVLVLGVLDGLLLSVGISILLLLRQMSAADIQILGQLGSGHDFVDLSRHPQARQVPGVLILRPGEALFFANAERILGGALRLIRHVQAPIHSIILSLEESPDLDGTSIEALDEFFRQVSLEHKHLALARLKHEAKDALALLPSSREYQVLLSGTSVDDTLQESLRGWKAGAFSQA	failed
MKILLLGGNGFIGRRLAARLIEAGHELSAPSRVELDLARPNQDWAAWVDGVDAVANLAGAFRQGRAGGFEAIHHAGPLRLAALARAHGVRRWVQLSALGAAAHAGAPFLSSKGRGDAALLDCGMEAVVARPSLIYGADGASSRLLLRLARLPFWLLPEGGGQRIQPVAAADVAEGLQRLIEGDARGVIDFVGAAEASLADYLRQLRRLQGVGGAAWLCPVPAWLAAGLAAACGCWPGSLLNRDSLRMLRQGSTADPAAFAALLGRQPLSFRQFGEVA	failed
VIRDLQKLLASMEPSLNPGTYAFVVAPADIQIPQDQIVASVCEPEGQSLVIPEQLAHERGLPVTYSAAWITLTVHSDLAAVGLTATFAGALGQAGISCNVIAGVHHDHLFVPADQAQQAMAVLFDLQRAAA	failed
